Reference: paper PMC12946210

Target: FBH1 (F-box helicase 1, isoform 4);SKP1;CUL1;RBX1 (human;human;human;human, UniProt Q2TAK1;P63208;Q13616;P62877 1-969;1-163;1-776;1-108, |||)
Test: EMSA

B1: Lag gap fork (mixed)
DNA 1: CTCAGGACTCAGTTCGTCAGCCCTTGACAGCGATGGAAGC
DNA 2: CGAAGGTAGCGACAGTTCCCCTGACGAACTGAGTCCTGAG
DNA 3: GCTTCCATCGCTCTCAAG
DNA 4: TCGCTACCTTCG
binding result: binds
